Data published in patent US20080096187A1.

Experiments:
Experiment in all cases: cell-based or functional assay
[1] = molecular target: HIV-2 7312A/V434M envelope glycoprotein (HIV-2 isolate 7312A)
[2] = molecular target: HIV-2 UC-1 envelope glycoprotein (HIV-2 UC1) (UniProt Q76638)
[3] = molecular target: HIV-2 7312A/H419R envelope glycoprotein (HIV-2 isolate 7312A)
[4] = molecular target: HIV-2 7312A envelope glycoprotein (HIV-2 isolate 7312A)
[5] = molecular target: HIV-2 7312A/Q422L envelope glycoprotein (HIV-2 isolate 7312A)
[6] = molecular target: HIV-1 YU2 envelope glycoprotein (HIV-1 YU2) (UniProt P35961)
[7] = molecular target: HIV-2 7312A envelope glycoprotein with substitutions 660 (K to A), 662 (N to D), 663 (S to K) and 665 (D to A) (HIV-2 isolate 7312A)
[8] = molecular target: HIV-2 ST envelope glycoprotein (HIV-2 ST) (UniProt P20872)
[9] = molecular target: HIV-2 7312A envelope glycoprotein with substitutions 675 (L to I) and 676 (A to T) (HIV-2 isolate 7312A)

Row | Substance | IC50 (neutralization) in the absence of sCD4 [1] | IC50 (neutralization) in the presence of sCD4 [1] | IC50 (neutralization) in the absence of sCD4 [2] | IC50 (neutralization) in the presence of sCD4 [2] | IC50 (neutralization) in the absence of sCD4 [3] | IC50 (neutralization) in the presence of sCD4 [3] | IC50 (neutralization) in the absence of sCD4 [4] | IC50 (neutralization) in the presence of sCD4 [4] | IC50 (neutralization) in the absence of sCD4 [5] | IC50 (neutralization) in the presence of sCD4 [5] | IC50 (neutralization) [6] | IC50 (neutralization) [4] | IC50 (neutralization) [7] | IC50 (neutralization) [2] | IC50 (neutralization) [8] | IC50 (neutralization) [9]
1 | X5 (antibody) | > 25 µg/mL | 2.5 µg/mL | > 25 µg/mL | > 25 µg/mL | > 25 µg/mL | > 25 µg/mL | > 25 µg/mL | > 25 µg/mL | > 25 µg/mL | > 25 µg/mL |  |  |  |  |  | 
2 | 2G12 (antibody) |  |  | > 25 µg/mL | > 25 µg/mL |  |  | > 25 µg/mL | > 25 µg/mL |  |  |  |  |  |  |  | 
3 | 2F5 (antibody) |  |  | > 25 µg/mL | > 25 µg/mL |  |  | > 25 µg/mL | > 25 µg/mL |  |  | 25 µg/mL | > 50 µg/mL | < 0.1 µg/mL |  |  | 
4 | F105 (antibody) |  |  | > 25 µg/mL | > 25 µg/mL |  |  | > 25 µg/mL | > 25 µg/mL |  |  |  |  |  |  |  | 
5 | E51 (antibody) | > 25 µg/mL | 4 µg/mL | > 25 µg/mL | 13 µg/mL | > 25 µg/mL | 22 µg/mL | > 25 µg/mL | > 25 µg/mL | > 25 µg/mL | > 25 µg/mL |  |  |  |  |  | 
6 | ED47 (antibody) | > 25 µg/mL | > 25 µg/mL | > 25 µg/mL | > 25 µg/mL | > 25 µg/mL | 4.7 µg/mL | > 25 µg/mL | > 25 µg/mL | > 25 µg/mL | > 25 µg/mL |  |  |  |  |  | 
7 | ED49 (antibody) | > 25 µg/mL | 2.4 µg/mL | > 25 µg/mL | 12 µg/mL | > 25 µg/mL | 3.3 µg/mL | > 25 µg/mL | 5.4 µg/mL | > 25 µg/mL | 3 µg/mL |  |  |  |  |  | 
8 | 4E10 (antibody) |  |  |  |  |  |  |  |  |  |  | 25 µg/mL | > 50 µg/mL |  | 1.2 µg/mL | 0.1 µg/mL | 0.8 µg/mL
9 | b12 (antibody) |  |  | > 25 µg/mL | > 25 µg/mL |  |  | > 25 µg/mL | > 25 µg/mL |  |  | 3 µg/mL | > 50 µg/mL |  |  |  | 
10 | A32 (antibody) |  |  | > 25 µg/mL | > 25 µg/mL |  |  | > 25 µg/mL | > 25 µg/mL |  |  |  |  |  |  |  | 
